# Earlier results in patent EP0632082B1, “Preparation of activated carbamates of poly(alkylene glycol) and their use” ("HEYLECINA", Société Anonyme, priority 1993, dated 1995).
# Conditions: modification with SC-mPEG
substance,measurement,value
papaya proteinase III: papaya proteinase III modified with SC-mPEG,increase of specific activity,250%
